Where a chain is given by its changes, count along the chain named.
Key:
Test in all cases: fluorescence polarization; WT-like affinity; figure values not assignable from text layer; 20 mM HEPES pH 8.0, 10 mM NaCl, 5% glycerol, 1 mM MgCl2, 0.5 mM TCEP, 0.5 nM Cy3-ssDNA; temperature not stated
Settings in all cases: protein: recombinant; tags: Trx-His6 removed by 3C protease; label: 5' Cy3
RecQ4 427-1208 R618L = molecular target: T1, RecQ4 427-1208 R618L (Homo sapiens, UniProt O94761 427-1208, R618L)
T1 sequence: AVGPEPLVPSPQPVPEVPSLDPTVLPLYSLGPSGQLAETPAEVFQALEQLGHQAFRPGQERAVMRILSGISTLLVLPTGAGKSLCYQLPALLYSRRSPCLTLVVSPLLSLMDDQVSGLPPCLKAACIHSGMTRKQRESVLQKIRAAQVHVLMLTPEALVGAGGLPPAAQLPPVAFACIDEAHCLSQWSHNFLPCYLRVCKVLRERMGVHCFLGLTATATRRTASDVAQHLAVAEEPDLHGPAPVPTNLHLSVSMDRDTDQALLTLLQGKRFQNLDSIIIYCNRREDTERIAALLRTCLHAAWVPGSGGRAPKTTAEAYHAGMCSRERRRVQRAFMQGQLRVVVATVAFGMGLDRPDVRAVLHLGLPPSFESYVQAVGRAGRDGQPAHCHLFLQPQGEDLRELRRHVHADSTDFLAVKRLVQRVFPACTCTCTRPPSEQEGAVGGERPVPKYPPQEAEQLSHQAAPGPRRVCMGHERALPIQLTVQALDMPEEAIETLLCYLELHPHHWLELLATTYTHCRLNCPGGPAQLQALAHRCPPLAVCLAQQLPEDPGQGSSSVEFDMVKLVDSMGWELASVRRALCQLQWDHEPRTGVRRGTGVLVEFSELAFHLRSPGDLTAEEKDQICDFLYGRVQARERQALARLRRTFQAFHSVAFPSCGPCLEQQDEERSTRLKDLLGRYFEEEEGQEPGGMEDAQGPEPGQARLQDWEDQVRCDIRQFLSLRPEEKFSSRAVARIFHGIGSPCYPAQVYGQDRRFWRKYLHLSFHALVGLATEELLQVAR

RecQ4 427-1208 W613L = molecular target: T2, RecQ4 427-1208 W613L (Homo sapiens, UniProt O94761 427-1208, W613L)
T2 sequence: T1 sequence with W187L, L192R

RecQ4 427-1208 H615L = molecular target: T3, RecQ4 427-1208 H615L (Homo sapiens, UniProt O94761 427-1208, H615L)
T3 sequence: T1 sequence with H189L, L192R

Measured: binding result

B1: T3-Cy3 (ssDNA)
DNA: CCATTCCACCCTCTATTTTTTTTTTTTTTT
binds: all assays above
